Test results from publication PMC12736101.

Experiment: SEC; Superdex 200 10/300 GL, phosphate-buffered saline, 0.5 mL/min, ambient temperature, UV 280 nm; the SEC 'monomer' peak is the native covalent dimer

Chain of dulaglutide, original reference drug (Trulicity) (chain): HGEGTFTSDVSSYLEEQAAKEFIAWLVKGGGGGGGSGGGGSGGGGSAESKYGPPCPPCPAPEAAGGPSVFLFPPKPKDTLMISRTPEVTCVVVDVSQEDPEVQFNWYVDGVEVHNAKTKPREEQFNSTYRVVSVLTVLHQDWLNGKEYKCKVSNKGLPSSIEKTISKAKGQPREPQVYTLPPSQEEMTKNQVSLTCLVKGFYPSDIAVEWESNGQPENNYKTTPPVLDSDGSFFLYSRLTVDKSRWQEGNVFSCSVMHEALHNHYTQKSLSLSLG

dulaglutide, original reference drug (Trulicity)
percent in the SEC 'monomer' peak (the native covalent dimer): 97.5% monomeric form in the Trulicity sample
